# Laboratory results taken from US20260092093A1 (TJ BIOPHARMA SHANGHAI, published 2026).
# B1: IL-18 variant polypeptide LM4 (ligand)
# chain: YFPKLKSKLSVIRNLNDQVLFIDQGNRPLFEDMTDSDCRDNAPRTIFIISMYKHSYSRGMAVTISVKCEKISTLSCENKIISFKEMNPPDNIKDTKSDIIFFQRSVPGHDNKMQFESSSYEGYFLACEKERDLFKLILKKEDELGDRSIMFTVQNED
# B2: IL-18 variant polypeptide M7 (ligand)
# chain: YFPKLRSKLSVIRNLNDQVLFIDQGNRPLFEDMTDSDCRDNAPRTIFIISMYKHSTARGMAVTISVKCEKISTLSCENKIISFKEMNPPDAIKDTKSDIIFFQRSVPGHDNKMQFESSSYEGYFLACEKERDLFKLILKKEDELGDRSIMFTVQNED
# B3: IL-18 variant polypeptide M5 (ligand)
# chain: YFEKLTSKLSVIRNLNDQVLFIDQGNRPLFEDMTDSDCRDNAPRTIFIISMYKWSPWRGMAVTISVKCEKISTLSCENKIISFKEMNPPDVIKDTKSDIIFFQTSVPGHDNKMQFESSSYEGYFLACEKERDLFKLILKKEDELGDRSIMFTVQKED
# B4: IL-18 variant polypeptide MM1 (ligand)
# chain: YFPKLKSKLSVIRNLNDQVLFIDQGNRPLFEDMTDSDCRDNAPRTIFIISMYKLSTQRGMAVTISVKCEKISTLSCENKIISFKEMNPPDVIKDTKSDIIFFQRSVPGHDNKMQFESSSYEGYFLACEKERDLFKLILKKEDELGDRSIMFTVQNED
# B5: IL-18 variant polypeptide M1 (ligand)
# chain: YFPKLKSKLSVIRNLNDQVLFIDQGNRPLFEDMTDSDCRDNAPRTIFIISMYKHSDRRGMAVTISVKCEKISTLSCENKIISFKEMNPPDVIKDTKSDIIFFQVSVPGHDNKMQFESSSYEGYFLACEKERDLFKLILKKEDELGDRSIMFTVQNED
# B6: IL-18 variant polypeptide M4 (ligand)
# chain: YFPKLKSKLSVIRNLNDQVLFIDQGNRPLFEDMTDSDCRDNAPRTIFIISMYKWSGVRGMAVTISVKCEKISTLSCENKIISFKEMNPPDVIKDTKSDIIFFQFSVPGHDNKMQFESSSYEGYFLACEKERDLFKLILKKEDELGDRSIMFTVQNED
# B7: IL-18 variant polypeptide WM2 (ligand)
# chain: YFPKLRSKLSVIRNLNDQVLFIDQGNRPLFEDMTDSDCRDNAPRTIFIISMYKDSQPRGMAVTISVKCEKISTLSCENKIISFKEMNPPDNIKDTESDIIFFQRSVPGHDNKMQFESSSYEGYFLACEKERDLFKLILKKEDELGDRSIMFTVQNED
# B8: IL-18 variant polypeptide MM6 (ligand)
# chain: YFAKLYSKLSVIRNLNDQVLFIDQGNRPLFEDMTDSDCRDNAPRTIFIISMYKRSSLRGMAVTISVKCEKISTLSCENKIISFKEMNPPDAIKDTKSDIIFFQRSVPGHDNKMQFESSSYEGYFLACEKERDLFKLILKKEDELGDRSIMFTVQNED
# B9: IL-18 variant polypeptide MM4 (ligand)
# chain: YFPKLRSKLSVIRNLNDQVLFIDQGNRPLFEDMTDSDCRDNAPRTIFIISMYKLSTIRGMAVTISVKCEKISTLSCENKIISFKEMNPPDGIKDTKSDIIFFQRSVPGHDNKMQFESSSYEGYFLACEKERDLFKLILKKEDELGDRSIMFTVQNED
# B10: IL-18 variant polypeptide M2 (ligand)
# chain: YFSKLKSKLSVIRNLNDQVLFIDQGNRPLFEDMTDSDCRDNAPRTIFIISMYKWSPDRGMAVTISVKCEKISTLSCENKIISFKEMNPPDGIKDTKSDIIFFQTSVPGHDNKMQFESSSYEGYFLACEKERDLFKLILKKEDELGDRSIMFTVQNED
# B11: IL-18 variant polypeptide LM5 (ligand)
# chain: YFGKLRSKLSVIRNLNDQVLFIDQGNRPLFEDMTDSDCRDNAPRTIFIISMYKWSSQRGMAVTISVKCEKISTLSCENKIISFKEMNPPDNIKDTKSDIIFFQRSVPGHDNKMQFESSSYEGYFLACEKERDLFKLILKKEDELGDRSIMFTVQNED
# B12: IL-18 variant polypeptide MM2 (ligand)
# chain: YFAKLYSKLSVIRNLNDQVLFIDQGNRPLFEDMTDSDCRDNAPRTIFIISMYKRSSLRGMAVTISVKCEKISTLSCENKIISFKEMNPPDGIKDTKSDIIFFQRSVPGHDNKMQFESSSYEGYFLACEKERDLFKLILKKEDELGDRSIMFTVQNED
# B13: IL-18 variant polypeptide M3 (ligand)
# chain: YFPKLKSKLSVIRNLNDQVLFIDQGNRPLFEDMTDSDCRDNAPRTIFIISMYKWSHVRGMAVTISVKCEKISTLSCENKIISFKEMNPPDAIKDTKSDIIFFQYSVPGHDNKMQFESSSYEGYFLACEKERDLFKLILKKEDELGDRSIMFTVQNED
# B14: IL-18 variant polypeptide M6 (ligand)
# chain: YFPKLRSKLSVIRNLNDQVLFIDQGNRPLFEDMTDSDCRDNAPRTIFIISMYKWSTPRGMAVTISVKCEKISTLSCENKIISFKEMNPPDVIKDTKSDIIFFQTSVPGHDNKMQFESSSYEGYFLACEKERDLFKLILKKEDELGDRSIMFTVQNED
# Legend:
# hIL-18BP-hFc = biological target: T1, hIL-18BP-hFc (human, UniProt O95998 31-194, limits assumed); experiment: cell-based or functional assay
# T1 sequence (looked up): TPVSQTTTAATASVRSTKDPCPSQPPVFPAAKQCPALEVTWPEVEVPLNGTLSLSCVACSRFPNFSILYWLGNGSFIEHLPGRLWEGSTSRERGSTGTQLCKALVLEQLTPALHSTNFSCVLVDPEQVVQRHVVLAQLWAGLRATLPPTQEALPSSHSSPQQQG
# [1] = biological target: T2, hIL-18 receptor (hIL-18Rα and hIL-18Rβ) (human, UniProt Q13478 19-541; O95256 20-599); experiment: cell-based or functional assay
# T2 sequence (looked up) 1: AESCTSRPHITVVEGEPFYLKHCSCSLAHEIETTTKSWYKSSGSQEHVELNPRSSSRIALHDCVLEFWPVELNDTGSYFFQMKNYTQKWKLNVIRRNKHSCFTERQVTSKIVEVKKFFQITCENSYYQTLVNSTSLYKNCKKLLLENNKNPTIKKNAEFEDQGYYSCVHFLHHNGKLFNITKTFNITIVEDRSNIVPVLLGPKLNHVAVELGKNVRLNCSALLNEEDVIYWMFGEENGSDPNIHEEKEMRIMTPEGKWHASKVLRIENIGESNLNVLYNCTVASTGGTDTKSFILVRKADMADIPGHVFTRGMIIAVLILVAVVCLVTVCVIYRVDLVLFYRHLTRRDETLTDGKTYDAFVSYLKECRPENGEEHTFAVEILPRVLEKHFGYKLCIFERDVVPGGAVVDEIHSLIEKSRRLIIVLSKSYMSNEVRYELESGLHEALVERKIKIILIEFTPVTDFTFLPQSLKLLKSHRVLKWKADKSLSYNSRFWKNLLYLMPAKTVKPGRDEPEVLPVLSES
# T2 sequence (looked up) 2: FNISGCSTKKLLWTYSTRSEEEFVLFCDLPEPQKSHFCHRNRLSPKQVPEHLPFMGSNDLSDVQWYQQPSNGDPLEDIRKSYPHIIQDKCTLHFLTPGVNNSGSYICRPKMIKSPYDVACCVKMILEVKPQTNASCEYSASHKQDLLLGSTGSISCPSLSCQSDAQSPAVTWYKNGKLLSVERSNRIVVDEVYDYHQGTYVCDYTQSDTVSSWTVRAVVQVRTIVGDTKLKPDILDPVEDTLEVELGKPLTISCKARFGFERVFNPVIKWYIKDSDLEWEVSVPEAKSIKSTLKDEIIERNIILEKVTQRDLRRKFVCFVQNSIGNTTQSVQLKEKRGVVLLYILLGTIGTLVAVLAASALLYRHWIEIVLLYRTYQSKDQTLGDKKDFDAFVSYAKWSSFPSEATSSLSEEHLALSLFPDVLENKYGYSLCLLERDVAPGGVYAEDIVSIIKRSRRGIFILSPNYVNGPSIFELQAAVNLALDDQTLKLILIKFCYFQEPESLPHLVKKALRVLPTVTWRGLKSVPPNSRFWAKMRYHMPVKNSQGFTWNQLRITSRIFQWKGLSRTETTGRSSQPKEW
Binder,"EC50 (nM) in the Presence of 1 µg/mL hIL-18BP-hFc, hIL-18 reporter assay (hIL-18BP-hFc) [nM]","EC50 Fold Change (+BP/-BP), hIL-18 reporter assay (hIL-18BP-hFc) [fold]","EC50 (nM), hIL-18 reporter assay [1] [nM]"
B1,0.17,1.06,0.16
B2,0.25,1.67,0.15
B3,0.21,0.95,0.22
B4,0.81,0.84,0.97
B5,3.45,2.38,1.45
B6,0.025,1.39,0.018
B7,14.2,1.32,10.7
B8,1.5,1.5,1
B9,0.43,3.31,0.13
B10,0.19,0.7,0.27
B11,0.12,0.92,0.13
B12,2.24,2.41,0.93
B13,0.37,1.54,0.24
B14,0.14,0.78,0.18
